Results taken from the DeepSol protein solubility set.

experiment: soluble on expression in E. coli; label from the status in PepcDB or PDB records

**Q.** For “MAMNLLEDWCRGMEVDIHRSLLVTGIPEDCGQAEIEETLNGVLSPLGPYRVLNKIFVREENVKAALIEVGEGVNLSTIPREFPGRGGVWRVVCRDPTQDAEFLKNLNEFLDAEGRTWEDVVRLLQLNHPTLSQNQHQPPENWAEALGVLLGAVVQIIFCMDAEIRSREEARAQEAAEFEEMAAWALAAGRKVKKEPGLAAEVGSALKAETPNNWNATEDQHEPTKPLVRRAGAKSRSRRKKQKKNSRQEAVPWKKPKGINSNSTANLEDPEVGDAESMAISEPIKGSRKPCVNKEELALKKPMAKCAWKGPREPPQDARAEAESPGGASESDQDGGHESPPKKKAVAWVSAKNPAPMRKKKKVSLGPVSYVLVDSEDGRKKPVMPKKGPGSRREASDQKAPRGQQPAEATASTSRGPKAKPEGSPRRATNESRKV”, which “soluble on expression in E. coli” value is on record?
**A.** soluble

**Q.** For “MAMSIELRTKYGQIDISNEVIAMVAGGAAVDCYGIVGSKNQIKDGLTEILRKENFSRGVQVRQEGEQIHIDMYIIVSYGTKISEVAHNVQTKVKYTVNQTIGLAVDSVNIYVQGVRVTNPLEHHHHHH”, which “soluble on expression in E. coli” value is on record?
**A.** not soluble

**Q.** With “MAMVPAKSLATTCVASKRMMWQIPEKWTMEEASTVPCVYSTVYYALVVRGQMKKGEKILIHAGSGGVGQAAISVALAHGLTVFTTVGSKEKREFLLKRFPKLQERNIGNSRDTSFEQLVLRETKGRGVDLVLNSLSEEKLQASIRCLGLNGRFLEIGKFDLSNNSPLGMSVFLKNTSFHGILLDSVMEGEEEMQNQVVSLVAEGIKTGAVVPLPTSVFNDQQVEQAFRFMASGKHIGKVVIK” as the sequence, how does the “soluble on expression in E. coli” value read?
**A.** soluble

**Q.** With “MANANPFARIADRYDGTPPRLRPPLVTQAVGEVIPFVDTAGCFVEAYTPRRVAVRLDNEERLHNHLGGLHAAALALLAETATGLVVALNVPDGSSPLLRTMDISFENFARDAVQAEATLTDAETSQVRSRPLGQIAVDVALTAPDDDTTLVAGTLTWAWVPEARLVDEGERLEHHHHHH” as the sequence, how does the “soluble on expression in E. coli” value read?
**A.** not soluble

**Q.** Which “soluble on expression in E. coli” value does the source give for “MANDDLQQRLDKGMYGTPLVNPEEQHKYMGTFRERCRLSMTVAEMKDAQNQKHLLEELAKHPEVTVLLNGEISSDLQSTYIKLLNQHGANFKIVNNFVENNPDSLGLLLAEKHAVDEPVIDVTEKYPQATETPKEEPTAKKSFWQKLFHS” here?
**A.** not soluble

**Q.** With “MANEIPTKGILKSEALKQYIMETSAYPREHELLKELRKATVQKYGNLSEMEVPVDEGHFLSMLVKIMNAKNTIEIGVFTGYSLLTTALALPEDGRITAIDIDKEAYEVGLEFIKKAGVDHKINFIHSDGLKALDQLVNDKCEFDFAFADADKSSYVNFHERLLKLVKVGGIIAFDNTLWFGFVAEDEDGVPEHMREYRAALIEFNKKLALDPRVEVSQISIGDGITLCRRLV” as the sequence, how does the “soluble on expression in E. coli” value read?
**A.** soluble

**Q.** For “MANFNVPKLGVFPVAAVFDIDNVPEDSSATGSRWLPSIYQGGNYWGGGPQALHAQVSNFDSSNRLPYNPRTENNPAGNCAFAFNPFGQYISNISSAQSVHRRIYGIDLNDEPLFSPNAASITNGGNPTMSQDTGYHNIGPINTAYKAEIFRPVNPLPMSDTAPDPETLEPGQTEPLIKSDGVYSNSGIASFIFDRPVTEPNPNWPPLPPPVIPIIYPTPALGIGAAAAYGFGYQVTVYRWEEIPVEFIADPETCPAQPTTDKVIIRTTDLNPEGSPCAYEAGIILVRQTSNPMNAVAGRLVPYVEDIAVDIFLTGKFFTLNPPLRITNNYFADDEVKENTVTIGNYTTTLSSAYYAVYKTDGYGGATCFIASGGAGISALVQLQDNSVLDVLYYSLPLSLGGSKAAIDEWVANNCGLFPMSGGLDKTTLLEIPRRQLEAINPQDGPGQYDLFILDDSGAYASFSSFIGYPEAAYYVAGAATFMDVENPDEIIFILRNGAGWYACEIGDALKIADDEFDSVDYFAYRGGVMFIGSARYTEGGDPLPIKYRAIIPGLPRGRLPRVVLEYQAVGMSFIPCQTHCLGKGGIISKV”, which “soluble on expression in E. coli” value is on record?
**A.** not soluble

**Q.** Which “soluble on expression in E. coli” value does the source give for “MANPFSKAWKYLMALFDSKIEENADPKVQIQQAIEDAQRQHQELSQQAAAVIGNQRQLEMQLNRRLAEIEKLQGNTRQAIQLADKARAEGNIQKATEYENAAEAFAAQLVTAEQGVEDTKQLHDQALQQADAAKKAVERNAMVLQQKVAERTKLLSQLEQAKMQEKVAESIQSMNSISNRDTPNLDQVREKIERRYANALGTAELAQNSVQGRMAEVEQAGIQLAGHSRLEQIRAEMSGGQLGAGNSATQQSIESAQQATPSAADDAVARKMRELRGEA” here?
**A.** not soluble

**Q.** With “MANQKQVLDVQVSKGITTAQSNEHLRDRSEKAEKYAMSKGNYDPTRKRLNFEIAPGGKIHPIDTSRSIPKRMADILSHRGIKDPNEGLLEPKYRTVVNIIFGGSRQRMQELAFGTQQVDFEKGADNTRIERKRDIERWAKDVYSFVCGRYGEQNIAAFIVHLDELNPHIHCTLLPIKDSRFAYKEIFAGKDKFEYSARMKQLHTDFFAEVNTKWGMSRGTSISETGARHRTTEEYRRMLSEECTTIEDNIKLHQQVLGELQSDIRLAERRVKGLTTMVSNLEKQKTEKETLLSAAEYNLKENKGNAAELAIQIQMLEKELQGIIRQLADKQEKLQTADRQLIELKKDMGAIEERTEELKEEAYQYSRDVHSKVDSLFKDVLLESVISEYRNASAQMNVSERQLFDGSLVQSIAERGTEIMHCATMLFLGMVDDATTFAESHGGGGGGSDLKWGRDEDEDNRAWALRCMRMASRMMRSTIGKKSKRLEHHHHHH” as the sequence, how does the “soluble on expression in E. coli” value read?
**A.** not soluble

**Q.** For “MANRSHHNAGHRAMNALRKSGQKHSSESQLGSSEIGTTRHVYDVCDCLDTLAKLPDDSVQLIICDPPYNIMLADWDDHMDYIGWAKRWLAEAERVLSPTGSIAIFGGLQYQGEAGSGDLISIISHMRQNSKMLLANLIIWNYPNGMSAQRFFANRHEEIAWFAKTKKYFFDLDAVREPYDEETKAAYMKDKRLNPESVEKGRNPTNVWRMSRLNGNSLERVGHPTQKPAAVIERLVRALSHPGSTVLDFFAGSGVTARVAIQEGRNSICTDAAPVFKEYYQKQLTFLQDDGLIDKARSYEIVEGAANFGAALQRGDVAS”, which “soluble on expression in E. coli” value is on record?
**A.** soluble

**Q.** With “MANSGEEKLKLYSYWRSSCAHRVRIALALKGLDYEYIPVNLLKGDQFDSDFKKINPMGTVPALVDGDVVINDSFAIIMYLDEKYPEPPLLPRDLHKRAVNYQAMSIVLSGIQPHQNLAVIRYIEEKINVEEKTAWVNNAITKGFTALEKLLVNCAGKHATGDEIYLADLFLAPQIHGAINRFQINMEPYPTLAKCYESYNELPAFQNALPEKQPDAPSSTI” as the sequence, how does the “soluble on expression in E. coli” value read?
**A.** soluble

**Q.** With “MANSLRNVNDYDPFKYRPSYFDLEAPTESFALGKFVDAIEVKQMALDAFSESSMVSIATSQLPKTAYTATSFIESEYYSFPYLFNDQKYYWDYFDYKIPAADFAVLELELDLNNQQDQQIKDHFIDPAIKAYKQLGDSTGLFATKPLTEYQNDTHYLLGYPVVPTDHTQLWECKQGAERFSYGYFYSNMARLTKNLRQGDPNAGSKTHIEYSNELLDKDSMDQGIVRFSTFLGANINYHDYDYRQQGYGLTLTDTNLPGGSSGSLVFNQDKKISSIYSAATESDSVGYAQLLRTPRDVNGISVVSQSYDLIFGDSNTKRYYAMFAKKQQTHLYSEILKSTDEQYRYVVDKQFN” as the sequence, how does the “soluble on expression in E. coli” value read?
**A.** soluble

**Q.** Which “soluble on expression in E. coli” value does the source give for “MANSPKKPSDGTGVSASDTPKYQHTVPETKPAFNLSPGKASELSHSLPSPSQIKSTAHVSSTHNDAAGNTDDSVLPKNVSPTTNLRVESNGDTNNMFSSPAGLALPKKDDKKKNKGTSKADSKDGKASNSSGQNAQQQSDPNKMQDVLFSAGIDVREEEALLNSSINASKSQVQTNNVKIPNHLPFLHPEQVSNYMRKVGKEQNFNLTPTKNPEILDMMSSACENYMRDILTNAIVISRHRRKAVKINSGRRSEVSAALRAIALIQKKEEERRVKKRIALGLEKEDYENKIDSEETLHRASNVTAGLRAGSKKQYGWLTSSVNKPTSLGAKSSGKVASDITARGESGLKFREAREEPGIVMRDLLFALENRRNSVQTIISKGYAKIRD” here?
**A.** not soluble

**Q.** Which “soluble on expression in E. coli” value does the source give for “MAPGQLALFSVSDKTGLVEFARNLTALGLNLVASGGTAKALRDAGLAVRDVSELTGFPEMLGGRVKTLHPAVHAGILARNIPEDNADMARLDFNLIRVVACNLYPFVKTVASPGVTVEEAVEQIDIGGVTLLRAAAKNHARVTVVCEPEDYVVVSTEMQSSESKDTSLETRRQLALKAFTHTAQYDEAISDYFRKQYSKGVSQMPLRYGMNPHQTPAQLYTLQPKLPITVLNGAPGFINLCDALNAWQLVKELKEALGIPAAASFKHVSPAGAAVGIPLSEDEAKVCMVYDLYKTLTPISAAYARARGADRMSSFGDFVALSDVCDVPTAKIISREVSDGIIAPGYEEEALTILSKKKNGNYCVLQMDQSYKPDENEVRTLFGLHLSQKRNNGVVDKSLFSNVVTKNKDLPESALRDLIVATIAVKYTQSNSVCYAKNGQVIGIGAGQQSRIHCTRLAGDKANYWWLRHHPQVLSMKFKTGVKRAEISNAIDQYVTGTIGEDEDLIKWKALFEEVPELLTEAEKKEWVEKLTEVSISSDAFFPFRDNVDRAKRSGVAYIAAPSGSAADKVVIEACDELGIILAHTNLRLFHH” here?
**A.** soluble

**Q.** With “MAPKDITFVERCYKYIDMNKNNWSPYTVTSTKSWVKNYIEPFFKNLKLTEVNPSSVQAFVNYNFNNSTFTSAKVRYSFLSSVIREAYRLREIQENSCDFIKLPLEHHHHHH” as the sequence, how does the “soluble on expression in E. coli” value read?
**A.** soluble

**Q.** For “MAPTQAGHDTAYLKETVGEALARGCAAAISAQPNDPVEYLGLWLLKYVKNAEVEGNFYRERQQDLQKKKDRLVKEAQSEQAAKSVALTRKEAADALALVTAEPRELLEAAVKLVKQHTAAGAAYAAVVAEPEEPDWVAPEDDEAAAVETEDEAAGGAALAEGEEPPPEPEPEPEAAPEDGEGDAPAPKIPRPVDYSKKYFAYVAASAGQEHVLEADLYRPAPPPEDADEDFKPEPLPYSFRVLDEKLPMLYVPNVAAEERVKFFRKFPKIGSYQACGVALPASGEFKALLAADTLFPEGSGQPLSADDRDFVWEVSQSLSRALEAVQARAAEALAATSAAEAVEELKAKVAELREQAAAEAAAAAPPPPAEGEEGEGEAPPAEEEPPAEEEAEEEEEEAEEGAEEGAEEGEEGEEAPPKPKKKKKVFNPIPGLQAAIEKLTAAAEAATEADARAQAAVALEKQALDEVVALASSHSDATLSSLRNMLSVPQGTYHVVKALLHLLGRPAASFSTWKRAHSHFSPRLFEDMAAYDATAERDMAVWGRVRSCYKAAPAAKKLDAEMPNTLFGSVALMYIKQVRRVARKAVLQRELAAKLAKAQQDLADKQAALVEAERVKAEREAEEARLAAEAEAAAAAEAEAAARAAAEAEAAAAAEAAAEAAAEAAAAAAEAAAEAGEGEAVAEREAAPAEAEAAPAEGEAAPPAEGEGEAQPAQEGSNSSSSSSDSSSSEESKAAAE”, which “soluble on expression in E. coli” value is on record?
**A.** not soluble

**Q.** With “MAPVIRRAKEIDLYCLNSLMYKLHDEHHQQCPDLFKTASEIEEEKSIARYLDDPECMVYVAEMDDVIIGFITGHFCELISTVSKLVMMATIDELYIEKEYRREGVAEQLMMRIEQELKDYGVKEIFVEVWDFNKGALEFYNKQGLNEHIHYLRKPLNRLEHHHHHH” as the sequence, how does the “soluble on expression in E. coli” value read?
**A.** soluble

**Q.** Which “soluble on expression in E. coli” value does the source give for “MAQHVKFHQYFFQWMQLYKLDAVRPVTYRKYEMSHRQLVTLAPDLKMADLSRLTYQQLLNDYAETHERQTTMDFHRHLKGSLIDALEEGFIDRDPTRKAIIKGIKHRQHKLEHHHHHH” here?
**A.** soluble

**Q.** For “MAQHVKFHQYFFQWMQLYKLDAVRPVTYRKYEMSHRQLVTLAPDLKMADLSRLTYQQLLNDYAETHERQTTMDFHRHLKGSLIDALEEGFIDRDPTRKAIIKGIKLEHHHHHH”, which “soluble on expression in E. coli” value is on record?
**A.** not soluble

**Q.** For “MAQLYFYYSAMNAGKSTALLQSSYNYQERGMRTVVYTAEIDDRFGAGKVSSRIGLSSPAKLFNQNTSLFEEIRAESARQTIHCVLVDESQFLTRQQVYQLSEVVDKLDIPVLCYGLRTDFRGELFVGSQYLLAWSDKLVELKTICFCGRKASMVLRLDQDGRPYNEGEQVVIGGNERYVSVCRKHYKDALEEGSLTAIQERHRHILEHHHHHH”, which “soluble on expression in E. coli” value is on record?
**A.** soluble

**Q.** Which “soluble on expression in E. coli” value does the source give for “MAQQQNPYYGTGFYQPSGTYVQPQQMTQQQQQAMQQQTAQAAQAQYAISQGMLPLEQSYIENILRLNKGKQATVVMTYERGSSLGTQSYTGIIEAAGRDHIVISEPQSGKRYLLLMIYLDYVEFPEEITYLPSQQATYTPRP” here?
**A.** soluble
